The Human Domainome abundance scans (Beltran et al. 2025)

B1: TGF-beta-activated kinase 1 and MAP3K7-binding protein 3, residues 12 to 50; numbered along this chain, Q8N5C8 (parent)
chain: VLHDLRQRFPEIPEGVVSQCMLQNNNNLEACCRALSQES

Variants of: B1
Assay: abundance fitness (aPCA) (normalised: wild type 0, dead -1); higher = more abundant; growth selection in yeast, the domain comes from the species named
Details: Homo sapiens

Abundance fitness: each site, then its substitutions
C32: S -0.226, E -0.176, A -0.21, F -0.579
E29: V -0.895, L -0.201
L35: K -0.808, A -0.793, D -0.784, M -0.879, S -0.745, R -0.811, H -0.469, P -0.488, Q -0.629, F -0.697, C -0.6, T -0.603, V -0.924, W -0.819, E -0.504
A34: G -0.73, H -0.117, T -0.297, S -0.342, D -0.178, V -0.135, Q 0.028, N -0.819, Y -0.328, M -0.168, I -0.04, W -0.398, C -0.373, K -0.353, L -0.413, E -0.056, R -0.49
L22: W -0.292, V 0.012, Y -0.213, T 0.026
Q23: I -0.649, R -0.06, E 0.215, S -0.206, A 0.107, P -0.787, M -0.105, T -0.275, N -0.046, D 0.271, L -0.108, H 0.168, V -0.167, G -0.722, K -0.189
E38: G -0.069, T -0.118, L 0.14, Y 0.093, M 0.224, S -0.046, P -0.029, H 0.11, W 0.264, V -0.073, F 0.109, D -0.045, Q 0.145, R 0.1, C 0.058, K 0.014
R33: V -0.115, Q -0.017, F -0.271, C -0.451, S -0.174, Y -0.459, H -0.137, P -0.731, D -0.239, K -0.023, A 0.04, G -0.454, E -0.056, N -0.315, W -0.259, T -0.127
S39: E -0.104, W -0.137, Y -0.002, P -0.041, K 0.052, A -0.255, R 0.121, G 0.001, M -0.077, T 0.249, F -0.213, C -0.083, L -0.045, Q 0.039
S36: L -0.186, I -0.108, V -0.365, K -0.014, W -0.571, G -0.194, Y -0.489, C -0.315, M -0.095, D -0.018, H -0.314, E 0.166, A 0.08, R -0.031
Q37: M 0.043, E 0.102, Y -0.345, A 0.084, S -0.014, D -0.042, W -0.372, R -0.003, T -0.05, H -0.162, N 0.151, F -0.384, I -0.107, K 0.107, C -0.129, P -0.537, V -0.122, G 0.009, L 0.041
C31: Y -0.895, D 0.122, M -0.732, K -0.513, Q -0.786, R -0.79, V -0.495, I -0.718, A -0.551, P -0.64, G -0.555, L -0.914, W -0.965, T -0.219, E -0.467, S -0.545
N26: M -0.317, F 0.164, E -0.475, D -0.435, P -1.32, C -0.365, H -0.316, W -0.808, V -0.816, L -0.685, A -0.498, R -0.746, S -0.289, G -0.144, K -0.799
